Changes are numbered by the printed parent chain.
T1: human Claudin 18.2 (human, UniProt P56856-2 1-261)
T1 construct: whole, on cells
T1 sequence (looked up): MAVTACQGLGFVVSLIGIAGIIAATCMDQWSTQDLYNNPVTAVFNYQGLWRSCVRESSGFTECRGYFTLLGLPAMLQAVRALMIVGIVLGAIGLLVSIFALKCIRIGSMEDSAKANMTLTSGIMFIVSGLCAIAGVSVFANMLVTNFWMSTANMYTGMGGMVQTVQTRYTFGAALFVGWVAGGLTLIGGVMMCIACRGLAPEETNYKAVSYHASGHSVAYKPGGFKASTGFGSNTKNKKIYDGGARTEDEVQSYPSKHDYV

B1: h15F9.v25 (antibody, V domains shown)
VH: QIQLVQSGSELKKPGASVKVSCKASGYTFTNYGINWVRQAPGQGLEWMGWINPNTGETTYAEGFTGRFVLSWDTSVSTAYLQISSLKAEDTAVYFCARLYYGNRFDSWGQGTLVTVSS
VL: DIVMTQSPDSLAVSLGERATINCKSSQSLLNSGNQRNYLAWYQQKPGQPPKLLIYWASTRESGVPDRFSGSGSGTDFTLTISSLQAEDVAVYYCQQAYYYPLTFGGGTKVEIK
notes: Humanized; also called 15F9VLv2 + 15F9VHv5
B2: 18D10.V13 (antibody, V domains shown)
VH: QVQLQESGPGLVKPSETLSLTCTVSGGSISSNYAWNWIRQPPGKGLEWIGYINYSGNTNYNPSLKSRVTISRDTSKNQFSLKLSSVTAADTAVYYCATSYYGNSFIYWGQGTLVTVSS
VL: B1 VL with R36K, A40T, Q96N, Y99S, Y100F, L102W, G106Q
notes: Humanized; also called 18D10VLv1 + 18D10VHv3
B3: h18A9.v12 (antibody, V domains shown)
VH: QVQLVQSGAEVKKPGSSVKVSCKPSGYTFTNYLIDWVRQAPGQGLEWMGGINPGSGDTVYNEKFQGRVTLTADESTSTAYMELSSLRSEDTAVYFCARRVRGNSFDSWGQGTLVTVSS
VL: B1 VL with R36K, A40T, T75K, Q96N, A97N, Y99F
notes: Humanized; also called 18A9VLv1 + 18A9VHv2
B4: h15F9.v15r2 (antibody, V domains shown)
VH: B1 VH with Q1E, I2V, N54Y, G63E, T65K, L70F, W72L
VL: B1 VL with A40T, Q96N
notes: Humanized; also called 15F9VLv1 + 15F9VHv5r2
B5: h18A9.v22 (antibody, V domains shown)
VH: B3 VH
VL: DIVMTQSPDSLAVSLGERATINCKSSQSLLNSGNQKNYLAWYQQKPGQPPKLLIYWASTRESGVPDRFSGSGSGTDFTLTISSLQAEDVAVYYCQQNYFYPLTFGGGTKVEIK
notes: Humanized; also called 18A9VLv2 + 18A9VHv2
B6: h18A9.v14 (antibody, V domains shown)
VH: B3 VH with P24A, E74K, T76S, S77M
VL: B1 VL with R36K, A40T, T75K, Q96N, A97N, Y99F
notes: Humanized; also called 18A9VLv1 + 18A9VHv4
B7: h18A9.v26 (antibody, V domains shown)
VH: B3 VH with S16A, T28A, E74K, T76S
VL: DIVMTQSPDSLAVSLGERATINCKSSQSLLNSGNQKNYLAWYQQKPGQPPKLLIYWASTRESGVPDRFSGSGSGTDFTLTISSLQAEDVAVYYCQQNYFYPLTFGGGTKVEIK
notes: Humanized; also called 18A9VLv2 + 18A9VHv6
B8: 18D10.V12 (antibody, V domains shown)
VH: B2 VH with I49M, V68I
VL: B1 VL with R36K, A40T, Q96N, Y99S, Y100F, L102W, G106Q
notes: Humanized; also called 18D10VLv1 + 18D10VHv2
B9: h15F9.v16 (antibody, V domains shown)
VH: B1 VH with N54G
VL: B1 VL with A40T, Q96N
notes: Humanized; also called 15F9VLv1 + 15F9VHv6
B10: 18D10.V22 (antibody, V domains shown)
VH: B2 VH with I49M, V68I
VL: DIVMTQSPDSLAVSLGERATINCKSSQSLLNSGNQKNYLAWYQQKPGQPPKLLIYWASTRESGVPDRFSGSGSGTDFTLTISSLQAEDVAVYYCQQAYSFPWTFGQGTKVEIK
notes: Humanized; also called 18D10VLv2 + 18D10VHv2
B11: h15F9.v35 (antibody, V domains shown)
VH: B1 VH
VL: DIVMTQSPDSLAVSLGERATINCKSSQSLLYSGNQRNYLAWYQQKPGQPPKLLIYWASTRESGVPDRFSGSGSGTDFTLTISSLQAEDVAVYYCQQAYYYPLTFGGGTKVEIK
notes: Humanized; also called 15F9VLv3 + 15F9VHv5
B12: 18D10.V25 (antibody, V domains shown)
VH: B2 VH with N59A
VL: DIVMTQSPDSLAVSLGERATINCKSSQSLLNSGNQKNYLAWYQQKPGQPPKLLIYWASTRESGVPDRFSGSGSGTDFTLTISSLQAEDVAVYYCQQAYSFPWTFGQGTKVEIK
notes: Humanized; also called 18D10VLv2 + 18D10VHv5
B13: h15F9.v35r1 (antibody, V domains shown)
VH: B1 VH with I2V, G63E, T65K, L70F, W72L
VL: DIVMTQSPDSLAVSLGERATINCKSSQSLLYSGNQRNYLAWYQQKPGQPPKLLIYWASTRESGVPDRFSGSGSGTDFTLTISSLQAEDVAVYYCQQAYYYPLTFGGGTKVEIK
notes: Humanized; also called 15F9VLv3 + 15F9VHv5r1
B14: h18A9.v17 (antibody, V domains shown)
VH: B3 VH with S16A, E74T, A79V
VL: B1 VL with R36K, A40T, T75K, Q96N, A97N, Y99F
notes: Humanized; also called 18A9VLv1 + 18A9VHv7
B15: h18A9.v13 (antibody, V domains shown)
VH: B3 VH with E74K, T76S, S77M, F95Y
VL: B1 VL with R36K, A40T, T75K, Q96N, A97N, Y99F
notes: Humanized; also called 18A9VLv1 + 18A9VHv3
B16: 18D10.V14 (antibody, V domains shown)
VH: B2 VH with N57Y
VL: B1 VL with R36K, A40T, Q96N, Y99S, Y100F, L102W, G106Q
notes: Humanized; also called 18D10VLv1 + 18D10VHv4
B17: 18D10.V23 (antibody, V domains shown)
VH: B2 VH
VL: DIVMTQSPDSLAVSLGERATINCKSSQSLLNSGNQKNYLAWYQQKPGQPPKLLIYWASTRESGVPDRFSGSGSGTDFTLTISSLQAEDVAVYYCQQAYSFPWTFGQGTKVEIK
notes: Humanized; also called 18D10VLv2 + 18D10VHv3
B18: h18A9.v25 (antibody, V domains shown)
VH: B3 VH with L70I
VL: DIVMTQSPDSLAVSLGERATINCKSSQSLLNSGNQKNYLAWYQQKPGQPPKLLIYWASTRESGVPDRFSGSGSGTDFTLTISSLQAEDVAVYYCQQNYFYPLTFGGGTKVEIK
notes: Humanized; also called 18A9VLv2 + 18A9VHv5
B19: 18D10.V16 (antibody, V domains shown)
VH: B2 VH with N53Y
VL: B1 VL with R36K, A40T, Q96N, Y99S, Y100F, L102W, G106Q
notes: Humanized; also called 18D10VLv1 + 18D10VHv6
B20: h15F9.v15r1 (antibody, V domains shown)
VH: B1 VH with I2V, G63E, T65K, L70F, W72L
VL: B1 VL with A40T, Q96N
notes: Humanized; also called 15F9VLv1 + 15F9VHv5r1
B21: h15F9.v25r2 (antibody, V domains shown)
VH: B1 VH with Q1E, I2V, N54Y, G63E, T65K, L70F, W72L
VL: B1 VL
notes: Humanized; also called 15F9VLv2 + 15F9VHv5r2
B22: h18A9.v27 (antibody, V domains shown)
VH: B3 VH with S16A, E74T, A79V
VL: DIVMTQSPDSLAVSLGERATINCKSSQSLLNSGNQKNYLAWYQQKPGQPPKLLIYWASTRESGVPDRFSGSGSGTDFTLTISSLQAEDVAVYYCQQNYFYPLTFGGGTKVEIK
notes: Humanized; also called 18A9VLv2 + 18A9VHv7
B23: 18D10.V11 (antibody, V domains shown)
VH: B2 VH with G27Y, S30T
VL: B1 VL with R36K, A40T, Q96N, Y99S, Y100F, L102W, G106Q
notes: Humanized; also called 18D10VLv1 + 18D10VHv1
B24: h18A9.v11 (antibody, V domains shown)
VH: B3 VH with T28A, E74K, T76S, S77M
VL: B1 VL with R36K, A40T, T75K, Q96N, A97N, Y99F
notes: Humanized; also called 18A9VLv1 + 18A9VHv1
B25: h15F9.v35r2 (antibody, V domains shown)
VH: B1 VH with Q1E, I2V, N54Y, G63E, T65K, L70F, W72L
VL: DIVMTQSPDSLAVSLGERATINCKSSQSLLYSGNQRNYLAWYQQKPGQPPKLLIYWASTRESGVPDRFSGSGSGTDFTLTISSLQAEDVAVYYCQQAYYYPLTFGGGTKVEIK
notes: Humanized; also called 15F9VLv3 + 15F9VHv5r2
B26: h15F9.v25r1 (antibody, V domains shown)
VH: B1 VH with I2V, G63E, T65K, L70F, W72L
VL: B1 VL
notes: Humanized; also called 15F9VLv2 + 15F9VHv5r1
B27: h15F9.v26 (antibody, V domains shown)
VH: B1 VH with N54G
VL: B1 VL
notes: Humanized; also called 15F9VLv2 + 15F9VHv6
B28: h18A9.v21 (antibody, V domains shown)
VH: B3 VH with T28A, E74K, T76S, S77M
VL: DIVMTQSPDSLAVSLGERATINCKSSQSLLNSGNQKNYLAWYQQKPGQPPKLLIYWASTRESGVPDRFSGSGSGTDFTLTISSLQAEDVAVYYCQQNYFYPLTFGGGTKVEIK
notes: Humanized; also called 18A9VLv2 + 18A9VHv1
B29: 18D10.V15 (antibody, V domains shown)
VH: B2 VH with N59A
VL: B1 VL with R36K, A40T, Q96N, Y99S, Y100F, L102W, G106Q
notes: Humanized; also called 18D10VLv1 + 18D10VHv5
B30: h15F9.v15 (antibody, V domains shown)
VH: B1 VH
VL: B1 VL with A40T, Q96N
notes: Humanized; also called 15F9VLv1 + 15F9VHv5
B31: h15F9.v36 (antibody, V domains shown)
VH: B1 VH with N54G
VL: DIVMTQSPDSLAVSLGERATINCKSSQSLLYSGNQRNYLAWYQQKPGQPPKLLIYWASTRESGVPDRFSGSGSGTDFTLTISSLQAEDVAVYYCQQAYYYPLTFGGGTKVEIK
notes: Humanized; also called 15F9VLv3 + 15F9VHv6
B32: h18A9.v15 (antibody, V domains shown)
VH: B3 VH with L70I
VL: B1 VL with R36K, A40T, T75K, Q96N, A97N, Y99F
notes: Humanized; also called 18A9VLv1 + 18A9VHv5
B33: h18A9.v24 (antibody, V domains shown)
VH: B3 VH with P24A, E74K, T76S, S77M
VL: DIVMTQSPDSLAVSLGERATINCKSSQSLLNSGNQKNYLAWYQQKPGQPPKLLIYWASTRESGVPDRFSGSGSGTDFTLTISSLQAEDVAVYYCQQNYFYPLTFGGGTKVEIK
notes: Humanized; also called 18A9VLv2 + 18A9VHv4
B34: 18D10.V26 (antibody, V domains shown)
VH: B2 VH with N53Y
VL: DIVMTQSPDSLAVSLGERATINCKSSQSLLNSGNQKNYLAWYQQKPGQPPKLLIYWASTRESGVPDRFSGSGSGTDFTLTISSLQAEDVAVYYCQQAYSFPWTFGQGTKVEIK
notes: Humanized; also called 18D10VLv2 + 18D10VHv6
B35: 18D10.V21 (antibody, V domains shown)
VH: B2 VH with G27Y, S30T
VL: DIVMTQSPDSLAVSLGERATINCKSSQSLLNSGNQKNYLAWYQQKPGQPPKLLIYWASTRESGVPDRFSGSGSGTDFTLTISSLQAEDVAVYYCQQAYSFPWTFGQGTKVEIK
notes: Humanized; also called 18D10VLv2 + 18D10VHv1
B36: h18A9.v23 (antibody, V domains shown)
VH: B3 VH with E74K, T76S, S77M, F95Y
VL: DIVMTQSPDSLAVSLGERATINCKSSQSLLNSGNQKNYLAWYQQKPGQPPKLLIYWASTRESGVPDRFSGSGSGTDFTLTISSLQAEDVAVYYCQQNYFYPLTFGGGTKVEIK
notes: Humanized; also called 18A9VLv2 + 18A9VHv3
B37: h18A9.v16 (antibody, V domains shown)
VH: B3 VH with S16A, T28A, E74K, T76S
VL: B1 VL with R36K, A40T, T75K, Q96N, A97N, Y99F
notes: Humanized; also called 18A9VLv1 + 18A9VHv6
B38: 18D10.V24 (antibody, V domains shown)
VH: B2 VH with N57Y
VL: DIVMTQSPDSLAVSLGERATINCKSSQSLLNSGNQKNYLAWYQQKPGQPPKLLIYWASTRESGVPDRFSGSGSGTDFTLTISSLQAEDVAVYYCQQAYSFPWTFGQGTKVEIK
notes: Humanized; also called 18D10VLv2 + 18D10VHv4

Biological target: T1, human Claudin 18.2
Test: flow cytometry (iQue) on cells, antibody from 100 nM in 5-fold steps; cell line not named in Example 5
Procedure: The cells at logarithmic growth phase were taken, blocked with 3% BSA for 30 minutes, plated at 5×10⁴ cells/100 μL into a U-shaped 96-well plate, centrifuged at 1100 rpm for 3 minutes, the supernatant was discarded, the cells were gently patted and loosed, 50 μL of antibody diluted according to the series was added to each well (antibody concentration starts from 100 nM, 5 times dilution in 8 series), incubated at 4° C. for 1 hour. After the incubation, 140 μL of 0.5% BSA was added to each well to wash 3 times, AF 647 APC anti-human secondary antibody was added with 30 μL/well and incubated at 4° C. for 40 minutes. After the incubation, 140 μL of 0.5% BSA was added to each well to wash 3 times, and finally resuspended each well with 50 μL PBS for iQue (Intellicyt, USA) detection (shown in Table 2).

| Binder | EC50 [nM] |
| --- | --- |
| B1 | 0.773 |
| B2 | 0.912 |
| B3 | 0.913 |
| B4 | 1.65 |
| B5 | 0.822 |
| B6 | 0.548 |
| B7 | 1.41 |
| B8 | 1.68 |
| B9 | 0.705 |
| B10 | 1.9 |
| B11 | 0.951 |
| B12 | 1.26 |
| B13 | 1.2 |
| B14 | 1.43 |
| B15 | 0.761 |
| B16 | 1.74 |
| B17 | 0.982 |
| B18 | 0.964 |
| B19 | 2.31 |

| Binder | EC50 [nM] |
| --- | --- |
| B20 | 2.53 |
| B21 | 1.61 |
| B22 | 0.646 |
| B23 | 1.13 |
| B24 | 0.645 |
| B25 | 0.879 |
| B26 | 1.72 |
| B27 | 1.02 |
| B28 | 1.03 |
| B29 | 2.69 |
| B30 | 1.67 |
| B31 | 0.786 |
| B32 | 1.41 |
| B33 | 2.06 |
| B34 | 1.87 |
| B35 | 1.07 |
| B36 | 1.17 |
| B37 | 0.799 |
| B38 | 1.93 |

Reference: patent US20220372112A1 (KEYMED BIOSCIENCES, published 2022)
